For one substance, inhibition of processing results are on record in patent publication US20060099689A1.

Holding throughout (experiment): cell-based or functional assay
Assay [1] concerns the target H-GST-DEVD/X-mLIF with X = proline (P) (murine) (UniProt P09056).
The target in assay [2] is H-GST-DEVD/X-mLIF with X = E (murine) (UniProt P09056).
The target of assay [3] is H-GST-DEVD/X-mLIF with X = D (murine) (UniProt P09056).

For “murine Caspase-3 (from UniProt P70677 29-175; P70677 176-277) (enzyme)”, the inhibition of processing came to 75% in assay [1], 25% in assay [2] and 25% in assay [3].
